1 protein from article PMC6283576, “Structural insight into substrate and product binding in an archaeal mevalonate kinase” (PLoS ONE, 2018) can be followed below.

This data set concerns the molecule itself. In words: crystal structure; MmMK with mevalonate (2.10 Å) or 5-phosphomevalonate (2.46 Å); space group P2(1)2(1)2(1), two molecules in the asymmetric unit; 100 mM Bis-Tris pH 5.5, sodium potassium tartrate, PEG 8,000 or 10,000.

B1: mevalonate kinase from Methanosarcina mazei (enzyme)
chain: MVSCSAPGKIYLFGEHAVVYGETAIACAVELRTRVRAELNDSITIQSQIGRTGLDFEKHPYVSAVIEKMRKSIPINGVFLTVDSDIPVGSGLGSSAAVTIASIGALNELFGFGLSLQEIAKLGHEIEIKVQGAASPTDTYVSTFGGVVTIPERRKLKTPDCGIVIGDTGVFSSTKELVANVRQLRESYPDLIEPLMTSIGKISRIGEQLVLSGDYASIGRLMNVNQGLLDALGVNILELSQLIYSARAAGAFGAKITGAGGGGCMVALTAPEKCNQVAEAVAGAGGKVTITKPTEQGLKVD
notes: mevalonate kinase (MmMK), Methanosarcina mazei; codon-optimized gene cloned into pSKB3 (modified pET28b); also called MmMK; MK; source: E. coli BL21(DE3), purified (Ni-NTA)
Consider B1, for which the binding result is listed as “binds”.
